We go through 3 proteins from article PMC11300964, “Chaperone BiP controls ER stress sensor Ire1 through interactions with its oligomers” (Life Science Alliance, 2024).

Data set [1] deals with the molecule itself. The data set is described as follows: MST; 0.5 μM FITC-labelled Ire1-LD titrated with unlabelled Ire1-LD; HMK buffer with 1 mM TCEP or 5 mM DTT; apparent dimerization constant (dimer to monomers); no substrate peptide.
Data set [2] deals with the molecule itself. The data set is described as follows: native MS; 5 μM Ire1-LD sprayed from 100 mM ammonium acetate at pH 6.8; no substrate peptide.
The data set “co-sedimentation” concerns the molecule itself. The data set is described as follows: co-sedimentation.
The data set “turbidity (OD at 400 nm)” concerns the molecule itself. The experiment in a line: turbidity (OD at 400 nm).

Several values for one entry are separate records, joined by “and”; a condition that tells them apart may be missing. Equal entries are not always repeated.

B1: human Ire1α luminal domain (aa 24–449), wild type (domain or fragment, UniProt O75460 24-449, looked up)
chain: STVTLPETLLFVSTLDGSLHAVSKRTGSIKWTLKEDPVLQVPTHVEEPAFLPDPNDGSLYTLGSKNNEGLTKLPFTIPELVQASPCRSSDGILYMGKKQDIWYVIDLLTGEKQQTLSSAFADSLCPSTSLLYLGRTEYTITMYDTKTRELRWNATYFDYAASLPEDDVDYKMSHFVSNGDGLVVTVDSESGDVLWIQNYASPVVAFYVWQREGLRKVMHINVAVETLRYLTFMSGEVGRITKWKYPFPKETEAKSKLTPTLYVGKYSTSLYASPSMVHEGVAVVPRGSTLPLLEGPQTDGVTIGDKGECVITPSTDVKFDPGLKSKNKLNYLRNYWLLIGHHETPLSASTKMLERFPNNLPKHRENVIPADSEKKSFEEVINLVDQTSENAPTTVSRDVEEKPAHAPARPEAPVDSMLKDMATIIL
modifications: FITC-labelled for the copy held at fixed concentration in MST and for fluorescence polarisation; unlabelled elsewhere
notes: human Ire1α luminal domain (Ire1-LD), aa 24-449 of UniProt O75460; Cloned into the pET His6 TEV LIC vector (Addgene 29653); 15N- or 13C,15N-labelled for NMR; also called Ire1-LD; WT Ire1-LD; source: E. coli BL21 (DE3), purified (HisTrap HP nickel column, dialysis)
On to B1, for which the Kd in data set [1] was determined as 500 ± 170 nM. Moreover, in data set [2], the stoichiometry N (commonly a count of units in the complex or per binding partner) was 2 and 4.

B2: human Ire1α luminal domain (aa 24–449), 315LL316 to DA variant (domain or fragment, UniProt O75460 24-449, looked up)
chain: STVTLPETLLFVSTLDGSLHAVSKRTGSIKWTLKEDPVLQVPTHVEEPAFLPDPNDGSLYTLGSKNNEGLTKLPFTIPELVQASPCRSSDGILYMGKKQDIWYVIDLLTGEKQQTLSSAFADSLCPSTSLLYLGRTEYTITMYDTKTRELRWNATYFDYAASLPEDDVDYKMSHFVSNGDGLVVTVDSESGDVLWIQNYASPVVAFYVWQREGLRKVMHINVAVETLRYLTFMSGEVGRITKWKYPFPKETEAKSKLTPTLYVGKYSTSLYASPSMVHEGVAVVPRGSTLPDAEGPQTDGVTIGDKGECVITPSTDVKFDPGLKSKNKLNYLRNYWLLIGHHETPLSASTKMLERFPNNLPKHRENVIPADSEKKSFEEVINLVDQTSENAPTTVSRDVEEKPAHAPARPEAPVDSMLKDMATIIL
notes: human Ire1α luminal domain (Ire1-LD), aa 24-449 of UniProt O75460, with LL 315-316 replaced by DA; source: E. coli BL21 (DE3), purified (HisTrap HP nickel column)
For B2, the binding result in “co-sedimentation” is given as “binds”.

B3: human Ire1α luminal domain (aa 24–449), 359WLLI362 to GSSG variant (domain or fragment, UniProt O75460 24-449, looked up)
chain: STVTLPETLLFVSTLDGSLHAVSKRTGSIKWTLKEDPVLQVPTHVEEPAFLPDPNDGSLYTLGSKNNEGLTKLPFTIPELVQASPCRSSDGILYMGKKQDIWYVIDLLTGEKQQTLSSAFADSLCPSTSLLYLGRTEYTITMYDTKTRELRWNATYFDYAASLPEDDVDYKMSHFVSNGDGLVVTVDSESGDVLWIQNYASPVVAFYVWQREGLRKVMHINVAVETLRYLTFMSGEVGRITKWKYPFPKETEAKSKLTPTLYVGKYSTSLYASPSMVHEGVAVVPRGSTLPLLEGPQTDGVTIGDKGECVITPSTDVKFDPGLKSKNKLNYLRNYGSSGGHHETPLSASTKMLERFPNNLPKHRENVIPADSEKKSFEEVINLVDQTSENAPTTVSRDVEEKPAHAPARPEAPVDSMLKDMATIIL
notes: human Ire1α luminal domain (Ire1-LD), aa 24-449 of UniProt O75460, with WLLI 359-362 replaced by GSSG at the oligomerisation interface; Methods and one legend print 358WLLI362; also called 358WLLI362 to GSSG; source: E. coli BL21 (DE3), expressed overnight at 20°C, purified (HisTrap HP nickel column)
On to B3, for which the binding result in the data set “turbidity (OD at 400 nm)” is given as “binds”.
